Assay: yeast display, Sf9 membrane polyspecificity reagent, FACS + sequencing; frameworks hold sequencing errors
Outline: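 Nanobodies came from a synthetic yeast display library in Saccharomyces cerevisiae BJ5465, induced with galactose for 36–48 hours and stained for 1 hour at 4 °C with 10% biotinylated, detergent-solubilized Sf9 membrane reagent. Cells were enriched on streptavidin microbeads and then FACS-sorted, with low and high (top ~1%) gates set on anti-HA fluorescence for expression and streptavidin fluorescence for reagent binding. Each polyreactivity label reflects the gate a clone came from. Genes were amplified by colony PCR, sequenced by MiSeq 2 × 250 and filtered by CDR length.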
With “QVQLVESGGGLVQAGGSLRLSCAASGSTFQYNAMGGYRQAPGKERELVASISWSGGSTYYADSVKGRFTISRDNAKNTVYLQMNSLKPEVTAVYYCAADWSDQRDYWGQGTQVTVSS” the “polyreactivity (PSR sort gate)” value was “low polyreactivity”. With “QVQLVESGGGLVQAGGSLRLSCAASGSTFQYNAMGWYRQAPGKEREFVAAISRTGTSTYYADSVKGRFTISRDNAKNTVYLLMNSLKPEDTAVYYCAAKSLRSGMGYWGQGTQVTVTS” the “polyreactivity (PSR sort gate)” value was “high polyreactivity”. For “QVQLVESGGGLVQAGGSLRLSCAASGSTFQYNAMGWYRQAPGKEREFVAAISRTGTSTYYADSVKGRFTISRDNAKNTVYLQMNSLKPEDNAVYYCAAKSLRSGMGYWGQGTQVTVSS”, the “polyreactivity (PSR sort gate)” value was “high polyreactivity”. In the case of “QVQLVESGGGLVQAGGSLRLSCAASGSTFQYNAMGWYRQAPGKEREFVAAITNGGGSTYYADSVKGRFTISRDNAKNTVYLQMNSLKPEDTAVYYCNARFRYARYSQRYDYWGQGTQVTVSS”, the “polyreactivity (PSR sort gate)” value is reported as “high polyreactivity”. With “QVQLVESGGGLVQAGGSLRLSCAASGSTFQYNAMGWYRQAPGKERELVAAISTGTSTYYADSVKGRFTISRDNAKNTVYLQMNSLKPEDTAVYYCAAEYWGDYTEYNYWGQGTQVTVSS” the “polyreactivity (PSR sort gate)” value was “high polyreactivity”. With “QVQLVESGGGLVQAGGSLRLSCAASGSTFQYNVMGWYRPAPGKERELVATISYSSGRTYYADSVKGRFTISRDNAKNTVYLQMNSLKPEDTAVYYCAAAVRLYFWTSAYKYGYWGQGTQVTVSS” the “polyreactivity (PSR sort gate)” value was “high polyreactivity”. For “QVQLVESGGGLVQAGGSLRLSCAASGSTFQYYAMGWYRQAPGKERELVAAISSGGRTNYADSVKGRFTISRDNAKNTVYLQMNSLKPEDTAVYYCAARWCYTKGEFDYWGQGTQVTVSS”, the “polyreactivity (PSR sort gate)” value was “high polyreactivity”. In the case of “QVQLVESGGGLVQAGGSLRLSCAASGSTFRANAMGWYRQAPGKERELVAAITSGGSTNYADSVKGRFTISRDNAKNTVYLQMNCLKPEDTAVYYCADESYQEHSFYVYYGYDYWGQGTQVTVSS”, the “polyreactivity (PSR sort gate)” value is reported as “low polyreactivity”. In the case of “QVQLVESGGGLVQAGGSLRLSCAASGSTFRANAMGWYRQAPGKERELVAAITSGGSTNYADSVKGRFTISRDNATNTVYLQMNSLKPEDTAVYYCADESYQEHSFYVYYGYDYWGQGTQVTVSS”, the “polyreactivity (PSR sort gate)” value is reported as “low polyreactivity”. In the case of “QVQLVESGGGLVQAGGSLRLSCAASGSTFRANVMGWYRQAPGKEWELVAAITSGGGSTYYADSVKGRFTISRDNAKNTVYLQMNSLKPEDTAVYYCATKRARYSYYYWGQGTQVTVSS”, the “polyreactivity (PSR sort gate)” value is reported as “high polyreactivity”. With “QVQLVESGGGLVQAGGSLRLSCAASGSTFRDNAMGWYRQAPGKERELVAAITVIDGTTYYADSVKGRFTISRDNAKNTVYLQMKSLKPEDTAVYYCAADTIWYEYYYWGQGTQVTVSS” the “polyreactivity (PSR sort gate)” value was “low polyreactivity”. For “QVQLVESGGGLVQAGGSLRLSCAASGSTFRDNAMGWYRQAPGKEWELVAAITVIDGTTYYADSVKGRFTLSRDNAKNTVYLQMNSLKPEDTAVYYCAADTIWYEYYYWGQGTQVTVSS”, the “polyreactivity (PSR sort gate)” value was “low polyreactivity”. For “QVQLVESGGGLVQAGGSLRLSCAASGSTFRDNTMGWYRQAPGKERELVAAITKSGGSTYYADSVKGRFTISRDTAKNTVYLQMNSLKPEDTAVYYCAAGARPRDKPVYFLYRYDYWGQGTQGTVSS”, the “polyreactivity (PSR sort gate)” value was “low polyreactivity”. For “QVQLVESGGGLVQAGGSLRLSCAASGSTFRDYAMGWYRQAPGKERELVAAITSGGTTDYADSVKGRFTISRYNAKNTVYLQMISLKPEDTAVYYCNKDGVVAGYQYDYWGQGTQVTVSS”, the “polyreactivity (PSR sort gate)” value was “low polyreactivity”. In the case of “QVQLVESGGGLVQAGGSLRLSCAASGSTFRFYALGWSRQAPGKERELVAAINGSGGSTYYADSVKGRFTISRDNAKNTVYLQMNSLKPEDTAVYYCAATYYILYTSWDEYWGQGTQVTVSS”, the “polyreactivity (PSR sort gate)” value is reported as “low polyreactivity”. With “QVQLVESGGGLVQAGGSLRLSCAASGSTFRFYAMGWYRQAPGKEREFVAAISTSGGSTYYADSVKGRFTISRDNAKNTVYLQMISLKPEETAVYYCATRRRIRSSFYYDNDYWGLGTQVTVSS” the “polyreactivity (PSR sort gate)” value was “high polyreactivity”. In the case of “QVQLVESGGGLVQAGGSLRLSCAASGSTFRFYAMGWYRQAPGKERELVAAISSGGSTYYADSVKGRFTISRDNAKNTVYLQMNSLKPEDTAVYYCNARLYYSTFRYYYWGQGTQVTVSS”, the “polyreactivity (PSR sort gate)” value is reported as “high polyreactivity”. With “QVQLVESGGGLVQAGGSLRLSCAASGSTFRFYAMGWYRQAPGKERELVAVISSAGSTNYADSVKGRFTISRDNAKNTVYLQMNSLKTEDTAVYYCAAYRRYSIYNYWGQGTQVTVSS” the “polyreactivity (PSR sort gate)” value was “high polyreactivity”. With “QVQLVESGGGLVQAGGSLRLSCAASGSTFRFYTMGWYRQAPGKERELVAAISGSGGSTYYADSVKGRFTISRDNAKNTVYLQMNSLKPEDTADYYCAADKSRNASHRGYWGQGTQVTVSS” the “polyreactivity (PSR sort gate)” value was “low polyreactivity”. With “QVQLVESGGGLVQAGGSLRLSCAASGSTFRFYTMGWYRQAPGKERELVAAISGSGGSTYYADSVKGRFTISRDNAKNTVYLQMNSLKPEDTAVYYCAADKSRYASHRGYWGQGTQVTVSS” the “polyreactivity (PSR sort gate)” value was “low polyreactivity”. For “QVQLVESGGGLVQAGGSLRLSCAASGSTFRGYAMGWYRQAPGKEREFVAAISRRGGTTYYADSVKGRFTISRDNAKNTVDLQMNSRNPEDTAVYYCNAVLYARQRDRWARYDYWGQGTQVTVSS”, the “polyreactivity (PSR sort gate)” value was “high polyreactivity”. For “QVQLVESGGGLVQAGGSLRLSCAASGSTFRGYAMGWYRQAPGKERELVAAIISDGTTNYADSVKGRFTISRDNAQTTVYLQMNSLKPEDTAVYYCNAEVQGGRPQFDYWGQGTQVTVSS”, the “polyreactivity (PSR sort gate)” value was “low polyreactivity”. In the case of “QVQLVESGGGLVQAGGSLRLSCAASGSTFRGYAMGWYRQAPGKERELVAAITFRGGSTYYADSVKGRFTISRDNAKNTVFLQMNSLKPEDTEVYYCYVRIYGYDYWGQGTQVSVSS”, the “polyreactivity (PSR sort gate)” value is reported as “high polyreactivity”. With “QVQLVESGGGLVQAGGSLRLSCAASGSTFRGYAMGWYRQAPGKERELVATITSGGSTKYADSVKGRFTISRDNAKNTVYLQMNSLKPEDTAVYYCNAVPRSWSPYSHWFDYWGQGTQVTVSS” the “polyreactivity (PSR sort gate)” value was “low polyreactivity”. In the case of “QVQLVESGGGLVQAGGSLRLSCAASGSTFRGYAMGWYRQAPGKERELVATITSGGSTNYADSVKGRFTISRDNAKNTVYLQMNSLKPEDTAVYYCNARWVPRYWKYFPANYGYWGLGTQVTVSS”, the “polyreactivity (PSR sort gate)” value is reported as “high polyreactivity”. For “QVQLVESGGGLVQAGGSLRLSCAASGSTFRGYAMGWYRQEPGKERELVAAITSGGSTNYADSVKGRFTISRDNAKNTVYLQMISLKPEDTAVYYCNADYTYLYDPNDYWGQGTQVTVSS”, the “polyreactivity (PSR sort gate)” value was “low polyreactivity”. With “QVQLVESGGGLVQAGGSLRLSCAASGSTFRGYTMGRNRQAPGKERELVAAISFRGTSTYYADSVKGRFTISRDNAKITVYLQMNSLIPEDTAVDYCAAVYTWGPGYGHDYWGQGTQVTVSS” the “polyreactivity (PSR sort gate)” value was “low polyreactivity”. For “QVQLVESGGGLVQAGGSLRLSCAASGSTFRHNAMGWYRQAPGKERELVAAITRSGGRTFYADSVKGRFTISRDNAKNTVYLQMNSLKPEDTAVYYCWGLGTQVTVSS”, the “polyreactivity (PSR sort gate)” value was “low polyreactivity”. For “QVQLVESGGGLVQAGGSLRLSCAASGSTFRHYAMGWYRQAPGKERELVAAISIRGGSTNYADSVKGRFTISRDNAKNTVYLQMNSLKPEDTAVYYCNACRLRYIFKSYDYWGQGTQVTVSS”, the “polyreactivity (PSR sort gate)” value was “high polyreactivity”. For “QVQLVESGGGLVQAGGSLRLSCAASGSTFRHYAMGWYRQAPGKERELVAVISWGGTSTYYADSVKGRFTISRDNAKNTVYLQMKSLKPEDTAVYYCNKAYFPIFKGYEMYYWGQGTQVTVSS”, the “polyreactivity (PSR sort gate)” value was “low polyreactivity”. In the case of “QVQLVESGGGLVQAGGSLRLSCAASGSTFRINTMGWYRQAPGKERELVATITGSGGSTYYADSVKGRFTISRDNAKNTVYLQMNSLKPEDTAVYYCAAVGDQNEYDYWGQGTQVTVSS”, the “polyreactivity (PSR sort gate)” value is reported as “low polyreactivity”. With “QVQLVESGGGLVQAGGSLRLSCAASGSTFRIYAMGWYRQAPGKERELVAAISKRGGSTYYADSVKGRFTISRDNAKNTVYLQMNSLKPEDTAVYYCAKPPYSQYEFDYWGQGTQVTVSS” the “polyreactivity (PSR sort gate)” value was “high polyreactivity”. In the case of “QVQLVESGGGLVQAGGSLRLSCAASGSTFRIYVMGWYRQAPGKEREFVAAISRGGGSTYYADSVKGRFTISRDNAKNTVYLQMNSLKPEDTAVYYCAAVTRDYGSRSGLDYWGQGTQVTVSS”, the “polyreactivity (PSR sort gate)” value is reported as “high polyreactivity”. With “QVQLVESGGGLVQAGGSLRLSCAASGSTFRLNAMGWYRQAPGKERELVAAITSGGSTTYADSVKGRFTISRDNAKNTVYLQMNSLKPEDTAVYYCAAANWGTPPYDYWGQGTQVTVSS” the “polyreactivity (PSR sort gate)” value was “low polyreactivity”. With “QVQLVESGGGLVQAGGSLRLSCAASGSTFRLYAMGWYRQAPGKERELVAAISTRGSSTYYADSVKGRFTISRDNAKNTVYLQMNSLKPEDTAVYYCAADAYFIYSRYWYDYWGQGTQVTVSS” the “polyreactivity (PSR sort gate)” value was “high polyreactivity”. For “QVQLVESGGGLVQAGGSLRLSCAASGSTFRNNAMGWYRQAHGKERELVAAISRGGGSTYYADSVKGRFTISRDNAKNTVYLQMNSLKPEDTAVYYCARRPTGIYDYWGQGTQVTVSS”, the “polyreactivity (PSR sort gate)” value was “high polyreactivity”. In the case of “QVQLVESGGGLVQAGGSLRLSCAASGSTFRNYAMGWYRQAPGKERELVATISASGGSTYYADSVKGRFTISRDNAKNTVYLQMNSLKPEDTAVYYCNAVVKLWGLVIPPGDYDYWGQGTQVTVSS”, the “polyreactivity (PSR sort gate)” value is reported as “high polyreactivity”. For “QVQLVESGGGLVQAGGSLRLSCAASGSTFRQNAMGWYRQAPGKERELVAAITYRVASTYYADSVKGRFTISRDNAKNTVYLQMNSLKPEDSAVYYCAAYKRRSNGRYWTYDYWGQGSQVTVSS”, the “polyreactivity (PSR sort gate)” value was “high polyreactivity”. In the case of “QVQLVESGGGLVQAGGSLRLSCAASGSTFRQYAMGWSRQAPGKERELVAAISSSGGSTYYADSVKGRFTISRDNAKNTVYLQMNSLKPEDTAGYYCNARLYGSASWGQPKEYDYWGQGTQVTVSS”, the “polyreactivity (PSR sort gate)” value is reported as “low polyreactivity”. In the case of “QVQLVESGGGLVQAGGSLRLSCAASGSTFRQYAMGWYRQAPGKERELVAGISYRGGRTYYADSVKGRFTISRDNAKNTVYLQMNSLKPEDTAVYYCNALRHYRDISVDGDDYWGQGTQVTVSS”, the “polyreactivity (PSR sort gate)” value is reported as “high polyreactivity”. With “QVQLVESGGGLVQAGGSLRLSCAASGSTFRRNAMGWYRQAPGKERELVAAISGSGGSTYYADSVKGRFTISRDNAKNTVYLQMNSLKPEDTAVYYCAARVVKNYKSDSWGQGTQVTVSS” the “polyreactivity (PSR sort gate)” value was “high polyreactivity”. In the case of “QVQLVESGGGLVQAGGSLRLSCAASGSTFRRNAMGWYRQAPGKERELVAAITSTDSTYYADSVKGRFTISRDNAKNTVYLQMNSLKPEDTAVYYCAKGYWWGGEMGYWGQGSQVTVSS”, the “polyreactivity (PSR sort gate)” value is reported as “low polyreactivity”. In the case of “QVQLVESGGGLVQAGGSLRLSCAASGSTFRRYAMGWYRQAPGKERELVAAITTADITNYADSVKGRFTISRDNAKNTVYLQMNSLKPEDTAVYYCAAPVAYRGSRNFIYRYNYWGQGTQVTVSS”, the “polyreactivity (PSR sort gate)” value is reported as “high polyreactivity”.
